Test [1] deals with T1, C3 purified from fresh human plasma (human, UniProt P01024 23-1663). Description: cell-based or functional assay.
Test [2] deals with T1, C3 purified from fresh human plasma. Description: cell-based or functional assay. The source holds these as a separate data set.
Test [3] concerns the target biotinylated C3b (UniProt P01024). Description: SPR, Biacore 3000; biotinylated C3b on streptavidin chip, peptide injected; 1:1 fit. For orientation: In SPR one partner is held on a chip, and binding of the other changes the refractive index at the surface.
In test [4] the target is T1, C3 purified from fresh human plasma. Description: ITC with C3; relative to peptide 14. Here is the method: (§1) ITC analysis. All ITC experiments were performed with the Microcal VP-ITC calorimeter (Microcal Inc., Northampton, Mass.), using protein concentrations of 1.8-5 μM C3 in the cell and peptide concentrations of 40-100 μM of individual compstatin analogs in the syringe. All titrations were performed in PBS (10 mM phosphate buffer with 150 mM NaCl, pH 7.4) at 25° C. using multiple peptide injections of 2-7 μL each. The raw isotherms were corrected for the heats of dilution by subtracting the isotherms representing peptide injections into the buffer. The resulting isotherms were fitted to a single site of sites models using Origin 7.0 software, and the model that produced the lowest χ² value was deemed to be appropriate for the respective data set. The Gibbs free energy was calculated as ΔG=ΔH−TΔS. Each experiment was repeated at least twice.
(§2) Characterization of binding thermodynamics.

The target is the same in test [5]. Description: ITC; peptide titrated into C3, PBS, 25 C. Here is the method:
as §1, §2
In general terms: In ITC the heat of successive injections is recorded.

Test [6] deals with biotinylated C3b (UniProt P01024). Nature of the test: SPR on immobilised C3b; ratio relative to peptide 14.
Test [7] deals with T1, C3 purified from fresh human plasma. Nature of the test: cell-based or functional assay. The source holds these as a separate data set.
Test [8] shares this target. Description: cell-based or functional assay. This is another data set of the same source.

Bridge positions count the residues as written; N and C are the ends. Square brackets hold non-standard residues; d marks the D form. Trp(1-Me) = Cn1cc(C[C@H](N)C(=O)O)c2ccccc21; NMeW = CN[C@@H](Cc1c[nH]c2ccccc12)C(=O)O; NMeH = CN[C@@H](Cc1c[nH]cn1)C(=O)O; NMeR = CN[C@@H](CCCNC(=N)N)C(=O)O; NMeQ = CN[C@@H](CCC(N)=O)C(=O)O; NMeD = CN[C@@H](CC(=O)O)C(=O)O; NMeC = CN[C@@H](CS)C(=O)O; Sar = CNCC(=O)O

T1 sequence (P01024 23-1663): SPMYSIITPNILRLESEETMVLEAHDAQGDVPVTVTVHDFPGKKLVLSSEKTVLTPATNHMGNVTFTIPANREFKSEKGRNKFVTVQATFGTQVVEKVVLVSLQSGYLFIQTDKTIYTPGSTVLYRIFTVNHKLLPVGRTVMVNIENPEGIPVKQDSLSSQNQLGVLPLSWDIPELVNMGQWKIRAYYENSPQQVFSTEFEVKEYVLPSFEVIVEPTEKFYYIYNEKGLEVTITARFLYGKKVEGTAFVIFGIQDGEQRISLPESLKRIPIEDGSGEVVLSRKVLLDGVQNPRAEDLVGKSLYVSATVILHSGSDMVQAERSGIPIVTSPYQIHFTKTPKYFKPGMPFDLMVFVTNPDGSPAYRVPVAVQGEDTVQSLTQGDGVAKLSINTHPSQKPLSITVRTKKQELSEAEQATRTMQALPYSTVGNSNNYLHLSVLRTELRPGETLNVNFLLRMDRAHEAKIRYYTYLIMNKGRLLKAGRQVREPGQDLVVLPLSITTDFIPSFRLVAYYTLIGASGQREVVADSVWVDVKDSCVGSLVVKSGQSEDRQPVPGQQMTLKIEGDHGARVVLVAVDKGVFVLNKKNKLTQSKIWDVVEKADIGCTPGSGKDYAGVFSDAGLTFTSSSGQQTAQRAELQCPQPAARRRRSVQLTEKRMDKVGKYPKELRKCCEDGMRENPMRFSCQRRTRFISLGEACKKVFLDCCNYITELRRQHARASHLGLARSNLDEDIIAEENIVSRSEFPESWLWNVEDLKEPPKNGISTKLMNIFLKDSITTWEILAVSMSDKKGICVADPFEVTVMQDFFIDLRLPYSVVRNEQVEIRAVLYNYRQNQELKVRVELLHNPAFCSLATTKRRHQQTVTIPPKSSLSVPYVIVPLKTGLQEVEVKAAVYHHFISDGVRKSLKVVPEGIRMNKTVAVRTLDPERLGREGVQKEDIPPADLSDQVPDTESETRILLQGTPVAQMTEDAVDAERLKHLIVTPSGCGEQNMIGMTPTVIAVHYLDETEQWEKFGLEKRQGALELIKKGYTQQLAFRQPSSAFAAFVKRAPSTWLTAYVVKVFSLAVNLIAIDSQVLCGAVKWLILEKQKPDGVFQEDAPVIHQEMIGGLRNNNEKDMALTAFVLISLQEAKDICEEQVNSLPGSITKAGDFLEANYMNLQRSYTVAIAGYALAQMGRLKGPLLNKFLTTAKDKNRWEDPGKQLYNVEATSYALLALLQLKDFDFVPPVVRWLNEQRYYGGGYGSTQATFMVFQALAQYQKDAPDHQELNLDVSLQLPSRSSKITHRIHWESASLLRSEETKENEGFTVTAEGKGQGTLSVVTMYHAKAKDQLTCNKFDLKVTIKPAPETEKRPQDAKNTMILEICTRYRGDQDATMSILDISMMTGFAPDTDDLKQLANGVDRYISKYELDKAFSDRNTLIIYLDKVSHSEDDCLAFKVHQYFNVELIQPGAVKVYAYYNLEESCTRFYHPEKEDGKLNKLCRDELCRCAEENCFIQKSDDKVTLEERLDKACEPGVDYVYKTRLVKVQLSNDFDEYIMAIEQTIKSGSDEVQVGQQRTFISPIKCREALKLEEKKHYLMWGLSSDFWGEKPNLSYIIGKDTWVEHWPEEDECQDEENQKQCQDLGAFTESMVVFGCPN

B1: Ac-I[CVYQDWGAHR(NMe)C]T-NH2 (peptide)
peptide: Ac-ICVYQDWGAHR[NMeC]T-NH2
modifications: disulfide 2-12
SMILES: CC[C@H](C)[C@H](NC(C)=O)C(=O)N[C@H]1CSSC[C@@H](C(=O)N[C@H](C(N)=O)[C@@H](C)O)N(C)C(=O)[C@H](CCCNC(=N)N)NC(=O)[C@H](Cc2c[nH]cn2)NC(=O)[C@H](C)NC(=O)CNC(=O)[C@H](Cc2c[nH]c3ccccc23)NC(=O)[C@H](CC(=O)O)NC(=O)[C@H](CCC(N)=O)NC(=O)[C@H](Cc2ccc(O)cc2)NC(=O)[C@H](C(C)C)NC1=O
Take B1: in test [1], the “IC50 (CP), inhibition of classical pathway complement activation, ELISA” value (“IC50 (CP), inhibition” for short) was determined as 154 µM and the “IC50-fold change relative to peptide 1” value came out at 0.02 fold.

B2: Ac-I[CVYQD(NMe)WGAHRC]T-NH2 (peptide)
peptide: Ac-ICVYQD[NMeW]GAHRCT-NH2
modifications: disulfide 2-12
SMILES: CC[C@H](C)[C@H](NC(C)=O)C(=O)N[C@H]1CSSC[C@@H](C(=O)N[C@H](C(N)=O)[C@@H](C)O)NC(=O)[C@H](CCCNC(=N)N)NC(=O)[C@H](Cc2c[nH]cn2)NC(=O)[C@H](C)NC(=O)CNC(=O)[C@H](Cc2c[nH]c3ccccc23)N(C)C(=O)[C@H](CC(=O)O)NC(=O)[C@H](CCC(N)=O)NC(=O)[C@H](Cc2ccc(O)cc2)NC(=O)[C@H](C(C)C)NC1=O
With B2, in test [1], the “IC50 (CP), inhibition” value is 25 µM and the “IC50-fold change relative to peptide 1” value was found to be 0.1 fold.

B3: Ac-I[CVYQ(NMe)DWGAHRC]T-NH2 (peptide)
peptide: Ac-ICVYQ[NMeD]WGAHRCT-NH2
modifications: disulfide 2-12
SMILES: CC[C@H](C)[C@H](NC(C)=O)C(=O)N[C@H]1CSSC[C@@H](C(=O)N[C@H](C(N)=O)[C@@H](C)O)NC(=O)[C@H](CCCNC(=N)N)NC(=O)[C@H](Cc2c[nH]cn2)NC(=O)[C@H](C)NC(=O)CNC(=O)[C@H](Cc2c[nH]c3ccccc23)NC(=O)[C@H](CC(=O)O)N(C)C(=O)[C@H](CCC(N)=O)NC(=O)[C@H](Cc2ccc(O)cc2)NC(=O)[C@H](C(C)C)NC1=O
For the molecule B3, in test [1], the “IC50 (CP), inhibition” value was found to be 44 µM and the “IC50-fold change relative to peptide 1” value amounted to 0.06 fold.

B4: Peptide 17-ABP (peptide)
peptide: ICVWQDWGAHRCIK
chain: RLIEDICLPRWGCLWEDD
modifications: propiolic acid on the N-terminus, joined by triazole to the azido-Lys of the peptide 17 chain; N-terminal acetyl; 1-methyl-Trp at 4; N-methyl-Gly (Sar) at 8; disulfide Cys2-Cys12 (cyclic); two mini-PEG-3 spacers between Ile13 and a C-terminal Lys-NH2; 2-azidoacetyl on the Lys side chain, joined by azide-alkyne cycloaddition (triazole) to the ABP
For the molecule B4, in test [2], the “IC50 (nM, CP), inhibition of classical pathway complement activation, ELISA, human serum” value was 242 nM and the “IC50 fold change relative to peptide 17” value amounted to 0.38 fold. In the test with biotinylated C3b [3], this molecule gave a Kd of 0.032 µM, a koff of 0.0036 s⁻¹ and a kon of 100000 M⁻¹ s⁻¹.

B5: peptide 16 (peptide)
peptide: Ac-ICV[Trp(1-Me)]QDWGAHRCI-NH2
modifications: disulfide 2-12
SMILES: CC[C@H](C)[C@H](NC(=O)[C@@H]1CSSC[C@H](NC(=O)[C@@H](NC(C)=O)[C@@H](C)CC)C(=O)N[C@@H](C(C)C)C(=O)N[C@@H](Cc2cn(C)c3ccccc23)C(=O)N[C@@H](CCC(N)=O)C(=O)N[C@@H](CC(=O)O)C(=O)N[C@@H](Cc2c[nH]c3ccccc23)C(=O)NCC(=O)N[C@@H](C)C(=O)N[C@@H](Cc2c[nH]cn2)C(=O)N[C@@H](CCCNC(=N)N)C(=O)N1)C(N)=O
notes: Peptide 14 scaffold with Gly^8, Ile^13; also called 16 (6)
On to B5, for which, in test [4], the “-TΔΔS” value was -1.3 kcal/mol, the “rKD ITC” value turned out to be 1.2 fold, the ΔΔG is -0.2 kcal/mol and the ΔΔH was 1 kcal/mol. In addition, in test [5], the “-TΔS” value amounted to 5.7 kcal/mol, the ΔG was -10.9 kcal/mol and the ΔH is -16.6 kcal/mol. In addition, in the test with biotinylated C3b [6], the rKD SPR amounted to 1.1 fold, the rka was found to be 1 fold and the rkd stood at 1 fold.

B6: Ac-I[CVY(NMe)QDWGAHRC]T-NH2 (peptide)
peptide: Ac-ICVY[NMeQ]DWGAHRCT-NH2
modifications: disulfide 2-12
SMILES: CC[C@H](C)[C@H](NC(C)=O)C(=O)N[C@H]1CSSC[C@@H](C(=O)N[C@H](C(N)=O)[C@@H](C)O)NC(=O)[C@H](CCCNC(=N)N)NC(=O)[C@H](Cc2c[nH]cn2)NC(=O)[C@H](C)NC(=O)CNC(=O)[C@H](Cc2c[nH]c3ccccc23)NC(=O)[C@H](CC(=O)O)NC(=O)[C@H](CCC(N)=O)N(C)C(=O)[C@H](Cc2ccc(O)cc2)NC(=O)[C@H](C(C)C)NC1=O
For the molecule B6, in test [1], the “IC50 (CP), inhibition” value was 33 µM and the “IC50-fold change relative to peptide 1” value is 0.07 fold.

B7: peptide 22 (peptide)
peptide: Ac-ICV[Trp(1-Me)]QDW[Sar]AHRCH-NH2
modifications: disulfide 2-12
SMILES: CC[C@H](C)[C@H](NC(C)=O)C(=O)N[C@H]1CSSC[C@@H](C(=O)N[C@@H](Cc2c[nH]cn2)C(N)=O)NC(=O)[C@H](CCCNC(=N)N)NC(=O)[C@H](Cc2c[nH]cn2)NC(=O)[C@H](C)NC(=O)CN(C)C(=O)[C@H](Cc2c[nH]c3ccccc23)NC(=O)[C@H](CC(=O)O)NC(=O)[C@H](CCC(N)=O)NC(=O)[C@H](Cc2cn(C)c3ccccc23)NC(=O)[C@H](C(C)C)NC1=O
B7: in test [7], the “IC50, inhibition of classical pathway complement activation, ELISA” value came out at 0.16 µM.

B8: Peptide 17-ABM (peptide)
peptide: ICVWQDWGAHRCIK
modifications: not fully specified; N-terminal acetyl; 1-methyl-Trp at 4; N-methyl-Gly (Sar) at 8; disulfide Cys2-Cys12 (cyclic); two mini-PEG-3 spacers between Ile13 and a C-terminal Lys-NH2; albumin-binding small molecule (ABM) on the Lys side chain
For B8, in test [2], the “IC50 (nM, CP), inhibition of classical pathway complement activation, ELISA, human serum” value was found to be 137 nM and the “IC50 fold change relative to peptide 17” value amounted to 0.67 fold. In the test with biotinylated C3b [3], this molecule came in with an equilibrium dissociation constant (Kd) of 0.0047 µM, an off-rate (koff) of 0.0056 s⁻¹ and a kon of 1.2e+06 M⁻¹ s⁻¹.

B9: Ac-I[CVYQDWGAH(NMe)RC]T-NH2 (peptide)
peptide: Ac-ICVYQDWGAH[NMeR]CT-NH2
modifications: disulfide 2-12
SMILES: CC[C@H](C)[C@H](NC(C)=O)C(=O)N[C@H]1CSSC[C@@H](C(=O)N[C@H](C(N)=O)[C@@H](C)O)NC(=O)[C@H](CCCNC(=N)N)N(C)C(=O)[C@H](Cc2c[nH]cn2)NC(=O)[C@H](C)NC(=O)CNC(=O)[C@H](Cc2c[nH]c3ccccc23)NC(=O)[C@H](CC(=O)O)NC(=O)[C@H](CCC(N)=O)NC(=O)[C@H](Cc2ccc(O)cc2)NC(=O)[C@H](C(C)C)NC1=O
With B9, in test [1], the “IC50 (CP), inhibition” value is 32 µM and the “IC50-fold change relative to peptide 1” value worked out at 0.08 fold.

B10: Ac-I[CVYQDW(NMe)GAHRC]T-NH2 (peptide)
peptide: Ac-ICVYQDW[Sar]AHRCT-NH2
modifications: disulfide 2-12
SMILES: CC[C@H](C)[C@H](NC(C)=O)C(=O)N[C@H]1CSSC[C@@H](C(=O)N[C@H](C(N)=O)[C@@H](C)O)NC(=O)[C@H](CCCNC(=N)N)NC(=O)[C@H](Cc2c[nH]cn2)NC(=O)[C@H](C)NC(=O)CN(C)C(=O)[C@H](Cc2c[nH]c3ccccc23)NC(=O)[C@H](CC(=O)O)NC(=O)[C@H](CCC(N)=O)NC(=O)[C@H](Cc2ccc(O)cc2)NC(=O)[C@H](C(C)C)NC1=O
On to B10, for which, in test [1], the “IC50 (CP), inhibition” value came to 1.43 µM and the “IC50-fold change relative to peptide 1” value turned out to be 1.7 fold.

B11: Ac-I[(NMe)CVYQDWGAHRC]T-NH2 (peptide)
peptide: Ac-I[NMeC]VYQDWGAHRCT-NH2
modifications: disulfide 2-12
SMILES: CC[C@H](C)[C@H](NC(C)=O)C(=O)N(C)[C@H]1CSSC[C@@H](C(=O)N[C@H](C(N)=O)[C@@H](C)O)NC(=O)[C@H](CCCNC(=N)N)NC(=O)[C@H](Cc2c[nH]cn2)NC(=O)[C@H](C)NC(=O)CNC(=O)[C@H](Cc2c[nH]c3ccccc23)NC(=O)[C@H](CC(=O)O)NC(=O)[C@H](CCC(N)=O)NC(=O)[C@H](Cc2ccc(O)cc2)NC(=O)[C@H](C(C)C)NC1=O
B11: in test [1], the “IC50 (CP), inhibition” value was determined as 7.5 µM and the “IC50-fold change relative to peptide 1” value was 0.3 fold.

B12: Ac-I[CVYQDWGA(NMe)HRC]T-NH2 (peptide)
peptide: Ac-ICVYQDWGA[NMeH]RCT-NH2
modifications: disulfide 2-12
SMILES: CC[C@H](C)[C@H](NC(C)=O)C(=O)N[C@H]1CSSC[C@@H](C(=O)N[C@H](C(N)=O)[C@@H](C)O)NC(=O)[C@H](CCCNC(=N)N)NC(=O)[C@H](Cc2c[nH]cn2)N(C)C(=O)[C@H](C)NC(=O)CNC(=O)[C@H](Cc2c[nH]c3ccccc23)NC(=O)[C@H](CC(=O)O)NC(=O)[C@H](CCC(N)=O)NC(=O)[C@H](Cc2ccc(O)cc2)NC(=O)[C@H](C(C)C)NC1=O
Regarding B12, in test [1], the “IC50 (CP), inhibition” value was 94 µM and the “IC50-fold change relative to peptide 1” value came to 0.03 fold.

B13: peptide 23 (peptide)
peptide: Ac-ICV[Trp(1-Me)]QDW[Sar]AHRCF-NH2
modifications: disulfide 2-12
SMILES: CC[C@H](C)[C@H](NC(C)=O)C(=O)N[C@H]1CSSC[C@@H](C(=O)N[C@@H](Cc2ccccc2)C(N)=O)NC(=O)[C@H](CCCNC(=N)N)NC(=O)[C@H](Cc2c[nH]cn2)NC(=O)[C@H](C)NC(=O)CN(C)C(=O)[C@H](Cc2c[nH]c3ccccc23)NC(=O)[C@H](CC(=O)O)NC(=O)[C@H](CCC(N)=O)NC(=O)[C@H](Cc2cn(C)c3ccccc23)NC(=O)[C@H](C(C)C)NC1=O
With B13, in test [7], the “IC50, inhibition of classical pathway complement activation, ELISA” value came out at 0.257 µM. For the same molecule, the “rP, relative potency compared to peptide 14” value in test [8] turned out to be 0.8 fold.

Usually Kd stands for a measure of binding affinity in units of concentration. For orientation: koff means the rate constant with which the complex falls apart. One may read the kon as a measure of how fast the partners come together. Low readings indicate slow association, high ones fast association.

The values are drawn from patent US20120178694A1 (University of Pennsylvania, published 2012).
